The values below come from patent publication US20230250154A1.

This assay deals with Protease Mixtures. Put plainly: cell-based or functional assay.

B1: Variant A2M, bait region SEQ ID NO 125, P01023 24-1474 (protein)
chain: SVSGKPQYMVLVPSLLHTETTEKGCVLLSYLNETVTVSASLESVRGNRSLFTDLEAENDVLHCVAFAVPKSSSNEEVMFLTVQVKGPTQEFKKRTTVMVKNEDSLVFVQTDKSIYKPGQTVKFRVVSMDENFHPLNELIPLVYIQDPKGNRIAQWQSFQLEGGLKQFSFPLSSEPFQGSYKVVVQKKSGGRTEHPFTVEEFVLPKFEVQVTVPKIITILEEEMNVSVCGLYTYGKPVPGHVTVSICRKYSDASDCHGEDSQAFCEKFSGQLNSHGCFYQQVKTKVFQLKRKEYEMKLHTEAQIQEEGTVVELTGRQSSEITRTITKLSFVKVDSHFRQGIPFFGQVRLVDGKGVPIPNKVIFIRGNEANYYSNATTDEHGLVQFSINTTNVMGTSLTVRVNYKDRSPCYGYQWVSEEHEEAHHTAYLVFSPSKSFVHLEPMSHELPCGHTQTVQAHYILNGGTLLGLKKLSFYYLIMAKGGIVRTGTHGLLVKQEDMKGHFSISIPVKSDIAPVARLLIYAVLPTGDVIGDSAKYDVENCLANKVDLSFSPSQSLPASHAHLRVTAAPQSVCALRAVDQSVLLMKPDAELSASSVYNLLPEKDLTGFPGPLNDQDDEDCINRHNVYINGITYTPVSSTNEKDMYSFLEDMGLKAFTNSKIRKPKMCPQLEQYEMHGPSELEGRGSIPENFFGVEAIPMSIPTSEDLVVQIVEEPHTKLRKYFPETWIWDLVVVNSAGVAEVGVTVPDTITEWKAGAFCLSEDAGLGISSTASLRAFQPFFVELTMPYSVIRGEAFTLKATVLNYLPKCIRVSVQLEASPAFLAVPVEKEQAPHCICANGRQTVSWAVTPKSLGNVNFTVSAEALESQELCGTEVPSVPEHGRKDTVIKPLLVEPEGLEKETTFNSLLCPSGGEVSEELSLKLPPNVVEESARASVSVLGDILGSAMQNTQNLLQMPYGCGEQNMVLFAPNIYVLDYLNETQQLTPEIKSKAIGYLNTGYQRQLNYKHYDGSYSTFGERYGRNQGNTWLTAFVLKTFAQARAYIFIDEAHITQALIWLSQRQKDNGCFRSSGSLLNNAIKGGVEDEVTLSAYITIALLEIPLTVTHPVVRNALFCLESAWKTAQEGDHGSHVYTKALLAYAFALAGNQDKRKEVLKSLNEEAVKKDNSVHWERPQKPKAPVGHFYEPQAPSAEVEMTSYVLLAYLTAQPAPTSEDLTSATNIVKWITKQQNAQGGFSSTQDTVVALHALSKYGAATFTRTGKAAQVTIQSSGTFSSKFQVDNNNRLLLQQVSLPELPGEYSMKVTGEGCVYLQTSLKYNILPEKEEFPFALGVQTLPQTCDEPKAHTSFQISLSVSYTGSRSASNMAIVDVKMVSGFIPLKPTVKMLERSNHVSRTEVSSNHVLIYLDKVSNQTLSLFFTVLQDVPVRDLKPAIVKVYDYYETDEFAIAEYNAPCSKDLGNADYKDDDDKGASHHHHHH
In the case of B1, the Protease Inhibition (% of WT); Protease Mixtures, IGD Substrate is 150 % of WT.

B2: Variant A2M, bait region SEQ ID NO 124, P01023 24-1474 (protein)
chain: SVSGKPQYMVLVPSLLHTETTEKGCVLLSYLNETVTVSASLESVRGNRSLFTDLEAENDVLHCVAFAVPKSSSNEEVMFLTVQVKGPTQEFKKRTTVMVKNEDSLVFVQTDKSIYKPGQTVKFRVVSMDENFHPLNELIPLVYIQDPKGNRIAQWQSFQLEGGLKQFSFPLSSEPFQGSYKVVVQKKSGGRTEHPFTVEEFVLPKFEVQVTVPKIITILEEEMNVSVCGLYTYGKPVPGHVTVSICRKYSDASDCHGEDSQAFCEKFSGQLNSHGCFYQQVKTKVFQLKRKEYEMKLHTEAQIQEEGTVVELTGRQSSEITRTITKLSFVKVDSHFRQGIPFFGQVRLVDGKGVPIPNKVIFIRGNEANYYSNATTDEHGLVQFSINTTNVMGTSLTVRVNYKDRSPCYGYQWVSEEHEEAHHTAYLVFSPSKSFVHLEPMSHELPCGHTQTVQAHYILNGGTLLGLKKLSFYYLIMAKGGIVRTGTHGLLVKQEDMKGHFSISIPVKSDIAPVARLLIYAVLPTGDVIGDSAKYDVENCLANKVDLSFSPSQSLPASHAHLRVTAAPQSVCALRAVDQSVLLMKPDAELSASSVYNLLPEKDLTGFPGPLNDQDDEDCINRHNVYINGITYTPVSSTNEKDMYSFLEDMGLKAFTNSKIRKPKMCPQLEQYEMHGPKEEEGLGSSELEGRGSEAIPMSIPTIPENFFGVVEEPHTKLRKYFPETWIWDLVVVNSAGVAEVGVTVPDTITEWKAGAFCLSEDAGLGISSTASLRAFQPFFVELTMPYSVIRGEAFTLKATVLNYLPKCIRVSVQLEASPAFLAVPVEKEQAPHCICANGRQTVSWAVTPKSLGNVNFTVSAEALESQELCGTEVPSVPEHGRKDTVIKPLLVEPEGLEKETTFNSLLCPSGGEVSEELSLKLPPNVVEESARASVSVLGDILGSAMQNTQNLLQMPYGCGEQNMVLFAPNIYVLDYLNETQQLTPEIKSKAIGYLNTGYQRQLNYKHYDGSYSTFGERYGRNQGNTWLTAFVLKTFAQARAYIFIDEAHITQALIWLSQRQKDNGCFRSSGSLLNNAIKGGVEDEVTLSAYITIALLEIPLTVTHPVVRNALFCLESAWKTAQEGDHGSHVYTKALLAYAFALAGNQDKRKEVLKSLNEEAVKKDNSVHWERPQKPKAPVGHFYEPQAPSAEVEMTSYVLLAYLTAQPAPTSEDLTSATNIVKWITKQQNAQGGFSSTQDTVVALHALSKYGAATFTRTGKAAQVTIQSSGTFSSKFQVDNNNRLLLQQVSLPELPGEYSMKVTGEGCVYLQTSLKYNILPEKEEFPFALGVQTLPQTCDEPKAHTSFQISLSVSYTGSRSASNMAIVDVKMVSGFIPLKPTVKMLERSNHVSRTEVSSNHVLIYLDKVSNQTLSLFFTVLQDVPVRDLKPAIVKVYDYYETDEFAIAEYNAPCSKDLGNADYKDDDDKGASHHHHHH
As for B2, the Protease Inhibition (% of WT); Protease Mixtures, IGD Substrate is 237 % of WT.

B3: Variant A2M, bait region SEQ ID NO 126, P01023 24-1474 (protein)
chain: SVSGKPQYMVLVPSLLHTETTEKGCVLLSYLNETVTVSASLESVRGNRSLFTDLEAENDVLHCVAFAVPKSSSNEEVMFLTVQVKGPTQEFKKRTTVMVKNEDSLVFVQTDKSIYKPGQTVKFRVVSMDENFHPLNELIPLVYIQDPKGNRIAQWQSFQLEGGLKQFSFPLSSEPFQGSYKVVVQKKSGGRTEHPFTVEEFVLPKFEVQVTVPKIITILEEEMNVSVCGLYTYGKPVPGHVTVSICRKYSDASDCHGEDSQAFCEKFSGQLNSHGCFYQQVKTKVFQLKRKEYEMKLHTEAQIQEEGTVVELTGRQSSEITRTITKLSFVKVDSHFRQGIPFFGQVRLVDGKGVPIPNKVIFIRGNEANYYSNATTDEHGLVQFSINTTNVMGTSLTVRVNYKDRSPCYGYQWVSEEHEEAHHTAYLVFSPSKSFVHLEPMSHELPCGHTQTVQAHYILNGGTLLGLKKLSFYYLIMAKGGIVRTGTHGLLVKQEDMKGHFSISIPVKSDIAPVARLLIYAVLPTGDVIGDSAKYDVENCLANKVDLSFSPSQSLPASHAHLRVTAAPQSVCALRAVDQSVLLMKPDAELSASSVYNLLPEKDLTGFPGPLNDQDDEDCINRHNVYINGITYTPVSSTNEKDMYSFLEDMGLKAFTNSKIRKPKMCPQLEQYEMHGPEGEGEGEGIPENFFGVSEDLVVQISELEGRGSVEEPHTKLRKYFPETWIWDLVVVNSAGVAEVGVTVPDTITEWKAGAFCLSEDAGLGISSTASLRAFQPFFVELTMPYSVIRGEAFTLKATVLNYLPKCIRVSVQLEASPAFLAVPVEKEQAPHCICANGRQTVSWAVTPKSLGNVNFTVSAEALESQELCGTEVPSVPEHGRKDTVIKPLLVEPEGLEKETTFNSLLCPSGGEVSEELSLKLPPNVVEESARASVSVLGDILGSAMQNTQNLLQMPYGCGEQNMVLFAPNIYVLDYLNETQQLTPEIKSKAIGYLNTGYQRQLNYKHYDGSYSTFGERYGRNQGNTWLTAFVLKTFAQARAYIFIDEAHITQALIWLSQRQKDNGCFRSSGSLLNNAIKGGVEDEVTLSAYITIALLEIPLTVTHPVVRNALFCLESAWKTAQEGDHGSHVYTKALLAYAFALAGNQDKRKEVLKSLNEEAVKKDNSVHWERPQKPKAPVGHFYEPQAPSAEVEMTSYVLLAYLTAQPAPTSEDLTSATNIVKWITKQQNAQGGFSSTQDTVVALHALSKYGAATFTRTGKAAQVTIQSSGTFSSKFQVDNNNRLLLQQVSLPELPGEYSMKVTGEGCVYLQTSLKYNILPEKEEFPFALGVQTLPQTCDEPKAHTSFQISLSVSYTGSRSASNMAIVDVKMVSGFIPLKPTVKMLERSNHVSRTEVSSNHVLIYLDKVSNQTLSLFFTVLQDVPVRDLKPAIVKVYDYYETDEFAIAEYNAPCSKDLGNADYKDDDDKGASHHHHHH
Consider B3, for which the Protease Inhibition (% of WT); Protease Mixtures, Collagen Substrate was 250 % of WT and the Protease Inhibition (% of WT); Protease Mixtures, IGD Substrate was 229 % of WT.
